B1: 22183 (protein)
chain: MALPVTALLLPLALLLHAARPACQVQLQESGAGLLKPSETLSLTCAVYGGSFSAYNWNWIRQPPGKGLEWIGEINHRGDTAYNPSLKSRVTISVDTSKNQFSLNLTSVTAADTAVYYCAARGYSYGWPPGYISDAFDIWGQGTQVTVSSGTGGGGSGGGGSGGGGSEFDIQMTQSPSSLSASVGDRVTITCKASDHINNWLAWYQQKPGQAPKLLIYGATTLETGVPSRFSGSGSGTDYTLTISSLQPEDFATYYCQQSWNTPWTFGQGTKLEIKRLEDLKNVFPPEVAVFEPSEAEISHTQKATLVCLATGFYPDHVELSWWVNGKEVHSGVCTDPQPLKEQPALNDSRYCLSSRLRVSATFWQNPRNHFRCQVQFYGLSENDEWTQDRAKPVTQIVSAEAWGRADCGFTSESYQQGVLSATILYEILLGKATLYAVLVSALVLMAMVKRKDSRGRAKRSGSGATNFSLLKQAGDVEENPGPTSMDWIWRILFLVGAATGAHSFEQVQLQQPGAELVKPGASVKMSCKASGYAFSSYWINWMKQKPGQGLEWIGQIYPGDGDTNYNGKFKGRATLTADTSSSTAYMQLSSLTSEDSAVYFCARSITTVVGCAMDYWGQGTSVTVSSTRIQNPDPAVYQLRDSKSSDKSVCLFTDFDSQTNVSQSKDSDVYITDKCVLDMRSMDFKSNSAVAWSNKSDFACANAFNNSIIPEDTFFPSPESSCDVKLVEKSFETDTNLNFQNLSVIGFRILLLKVAGFNLLMTLRLWSSRAKRSGSGVKQTLNFDLLKLAGDVESNPGPSRGHMTEYKPTVRLATRDDVPRAVRTLAAAFADYPATRHTVDPDRHIERVTELQELFLTRVGLDIGKVWVADDGAAVAVWTTPESVEAGAVFAEIGPRMAELSGSRLAAQQQMEGLLAPHRPKEPAWFLATVGVSPDHQGKGLGSAVVLPGVEAAERAGVPAFLETSAPRNLPFYERLGFTVTADVEVPEGPRTWCMTRKPGA
B2: 22182 (protein)
chain: MALPVTALLLPLALLLHAARPACEVQLVESGGGVVQPGRSLRLSCAASGFSFSGYGMHWVRQAPGKGLEWVAYISYDGSNKYYADSVKGRFTISRDNSKNTLYLQMNSLRAEDTAVYYCAKDPAWGLRLGESSSYDFDYWGQGTMVTVSSGTGGGGSGGGGSGGGGSEFDIQMTQSPSSLSASVGDRVTITCKASDHINNWLAWYQQKPGQAPKLLIYGATTLETGVPSRFSGSGSGTDYTLTISSLQPEDFATYYCQQSWNTPWTFGQGTKLEIKRLEDLKNVFPPEVAVFEPSEAEISHTQKATLVCLATGFYPDHVELSWWVNGKEVHSGVCTDPQPLKEQPALNDSRYCLSSRLRVSATFWQNPRNHFRCQVQFYGLSENDEWTQDRAKPVTQIVSAEAWGRADCGFTSESYQQGVLSATILYEILLGKATLYAVLVSALVLMAMVKRKDSRGRAKRSGSGATNFSLLKQAGDVEENPGPTSMDWIWRILFLVGAATGAHSFEQVQLQQPGAELVKPGASVKMSCKASGYAFSSYWINWMKQKPGQGLEWIGQIYPGDGDTNYNGKFKGRATLTADTSSSTAYMQLSSLTSEDSAVYFCARSITTVVGCAMDYWGQGTSVTVSSTRIQNPDPAVYQLRDSKSSDKSVCLFTDFDSQTNVSQSKDSDVYITDKCVLDMRSMDFKSNSAVAWSNKSDFACANAFNNSIIPEDTFFPSPESSCDVKLVEKSFETDTNLNFQNLSVIGFRILLLKVAGFNLLMTLRLWSSRAKRSGSGVKQTLNFDLLKLAGDVESNPGPSRGHMTEYKPTVRLATRDDVPRAVRTLAAAFADYPATRHTVDPDRHIERVTELQELFLTRVGLDIGKVWVADDGAAVAVWTTPESVEAGAVFAEIGPRMAELSGSRLAAQQQMEGLLAPHRPKEPAWFLATVGVSPDHQGKGLGSAVVLPGVEAAERAGVPAFLETSAPRNLPFYERLGFTVTADVEVPEGPRTWCMTRKPGA
B3: 22218 (protein)
chain: MALPVTALLLPLALLLHAARPACQDKLTQWPKWLEGTGGGGSGGGGSGGGGSEFDIQMTQSPSSLSASVGDRVTITCKASDHINNWLAWYQQKPGQAPKLLIYGATTLETGVPSRFSGSGSGTDYTLTISSLQPEDFATYYCQQSWNTPWTFGQGTKLEIKRLEDLKNVFPPEVAVFEPSKAEIAHTQKATLVCLATGFYPDHVELSWWVNGKEVHSGVCTDPQPLKEQPALNDSRYCLSSRLRVSATFWQNPRNHFRCQVQFYGLSENDEWTQDRAKPVTQIVSAEAWGRADCGITSASYHQGVLSATILYEILLGKATLYAVLVSALVLMAMVKRKDSRGRAKRSGSGATNFSLLKQAGDVEENPGPTSATMDWIWRILFLVGAATGAHSGPQVQLQESGGGLAQAGGSLRLSCAASGRTFSMGWFRQAPGKEREFVAAITYSGGSPYYASSVRGRFTISRDNAKNTVYLQMNSLKPEDTAVYYCAANPTYGSDWNAENWGQGTQVTVSSGSGGGGSGGGGSGGGGSFEQVQLQQPGAELVKPGASVKMSCKASGYAFSSYWINWMKQKPGQGLEWIGQIYPGDGDTNYNGKFKGRATLTADTSSSTAYMQLSSLTSEDSAVYFCARSITTVVGCAMDYWGQGTSVTVSSTRIQNPDPAVYQLRDSKSSDKSVCLFTDFDSQTNVSQSKDSDVYITDKCVLDMRSMDFKSNSAVAWSNKSDFACANAFNNSIIPEDTFFPSSDVPCDVKLVEKSFETDTNLNFQNLSVIGFRILLLKVAGFNLLMTLRLWSSRAKRSGSGVKQTLNFDLLKLAGDVESNPGPSRGHMTEYKPTVRLATRDDVPRAVRTLAAAFADYPATRHTVDPDRHIERVTELQELFLTRVGLDIGKVWVADDGAAVAVWTTPESVEAGAVFAEIGPRMAELSGSRLAAQQQMEGLLAPHRPKEPAWFLATVGVSPDHQGKGLGSAVVLPGVEAAERAGVPAFLETSAPRNLPFYERLGFTVTADVEVPEGPRTWCMTRKPGA
B4: 22194 (protein)
chain: MALPVTALLLPLALLLHAARPQLQLQESGPGLVKPSETLSLTCTVSGDSISSGDYYWGWIRQPPGKGLEWIGHIYYSGVTYYNPSLKSRVTISVDTSRNQFSLKLSSVTAADTAVYYCTREDSSNWRSRGQGTLVTVSSLEGQPKANPTVTLFPPSSEELQANKATLVCLISDFYPGAVTVAWKADGSPVKAGVETTKPSKQSNNKYAASSYLSLTPEQWKSHRSYSCQVTHEGSTVEKTVAPTECSPIKTDVITMDPKDNCSKDANDTLLLQLTNTSAYYMYLLLLLKSVVYFAIITCCLLRRTAFCCNGEKSRAKRSGSGATNFSLLKQAGDVEENPGPTSMDWIWRILFLVGAATGAHSFEYAKEMRNAYWEIALLPNLTNQQKRAPIRKLYDDPSQSSELLSEAKKLNDSQTRASTKGPSVFPLAPSSKSTSGGTAALGCLVKDYFPEPVTVSWNSGALTSGVHTFPAVLQSSGLYSLSSVVTVPSSSLGTQTYICNVNHKPSNTKVDKRVEPKSCEVKTDSTDHVKPKETENTKQPSKSCHKPKAIVHTEKVNMMSLTVLGLRMLFAKTVAVNFLLTAKLFFLRAKRSGSGVKQTLNFDLLKLAGDVESNPGPSRGHMTEYKPTVRLATRDDVPRAVRTLAAAFADYPATRHTVDPDRHIERVTELQELFLTRVGLDIGKVWVADDGAAVAVWTTPESVEAGAVFAEIGPRMAELSGSRLAAQQQMEGLLAPHRPKEPAWFLATVGVSPDHQGKGLGSAVVLPGVEAAERAGVPAFLETSAPRNLPFYERLGFTVTADVEVPEGPRTWCMTRKPGA

Tested on: RAJI cells
Experiment: JNG assay, co-culture with RAJI cells
Assay type: cell-based
Conditions: JNG cells expressing construct, co-culture with Raji
How it was run: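 Jurkat-NFAT-GFP (JNG) cells stably expressing SAR constructs via lentiviral transduction and puromycin/blasticidin selection were cocultured with target cells at E:T ~1:2 for ~4–18 h. NFAT-driven GFP was measured by FACS versus parental JNG cells; scores +/- to 5+ denote ~5–50% GFP-positive cells.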

Row | Molecule | NFAT-GFP ASSAY: Raji
1 | B1 | 5+ (refer to approximately 5%, 10%, 20%, 30%, 40% and 50% GFP positive cells)
2 | B2 | 5+ (refer to approximately 5%, 10%, 20%, 30%, 40% and 50% GFP positive cells)
3 | B3 | Raji (3+) (refer to approximately 5%, 10%, 20%, 30%, 40% and 50% GFP positive cells)
4 | B4 | 4+ (refer to approximately 5%, 10%, 20%, 30%, 40% and 50% GFP positive cells)

— patent US20230212319A1, “NOVEL ANTIGEN BINDING DOMAINS AND SYNTHETIC ANTIGEN RECEPTORS INCORPORATING THE SAME” (University of Southern California, priority 2020, published 2023)
